# Literature values, collected in paper PMC4944212.
# Like-named read-outs stand apart in the source and are kept apart here.
# How the values were obtained:
# [1] = target: SosCat SosCat (Homo sapiens) (UniProt Q07889); assay: fluorescence titration
# [2] = target: SosCat SosCat catalytic site (Homo sapiens) (UniProt Q07889)
# [3] = target: SosCat SosCat (Homo sapiens) (UniProt Q07889)
substance,measurement,setting,value
H-Ras (from UniProt P01112),Kd,[1],5 µM
same,Kd,[2],21 µM
same,Kd,[3],54 µM
